We go through 15 molecules from patent US20090286858A1, “ASSAYS FOR MODULATORS OF ASPARAGINYL HYDROXYLASE” (ISIS INNOVATION LIMITED, priority 2002, published 2009).

Where two headings read alike, the source gives them in different places. Where no end group is shown, it is not given here.

Common to all, as to type: biochemical
Data set [1] addresses T1, FIH (Homo sapiens, UniProt Q9NWT6).
T1 construct: His6 (N, cleaved yes); made in house; host or cells: Escherichia coli BL21(DE3)
Description: FIH 2-OG decarboxylation (CO2 release) assay with HIF-1α polypeptide substrates. As to conditions: for % activity relative to 775-826 peptide: same conditions; for % activity relative to 775-826 peptide / CO2 released: polypeptide as FIH substrate; for CO2 released: standard assay conditions. On the procedure:
(§1) FIH assays—Assays for decarboxylation of 2-OG were performed using radiolabelled 2-OG (New England Nuclear) as reported in Epstein et al supra. Incubations contained ascorbate, DTT, catalase, 2-OG, FIH, and substrate in 50 mM Tris/HCl pH7.4, and were carried out at 37° C. typically for 20 minutes. HPLC separations were achieved on a Phenomenex Jupiter C4 (10 cm×4.6 mm) column by using of a linear gradient of CH3CN in 0.1% TFA. For inhibition and metal dependence assays, GST HIF-1α 775-826 was used as substrate at 30 μM, and with iron (II) ammonium sulfate, cobalt (II) chloride, zinc (II) chloride, and N-oxaloylglycine at final concentrations of 0, 2, 10, 40, 80 and 200 μM. Assays under an atmosphere of ^18O2 were performed as reported in McNeill et al, Bioorg Med Chem Lett, 2002 12, 1547-1550.

Data set [2] concerns the target T1, FIH. Kind of data set: FIH inhibition and metal dependence assays (2-OG decarboxylation, GST HIF-1α 775-826 as substrate). As for the experimental part:
as §1
Further characterization of FIH activity—To explore the mechanism of FIH and its relationship to the characteristics of in vivo HIF activation, in vitro analyses of FIH using the purified recombinant protein were performed.

The target of data set [3] is T1, FIH. Description: GST pulldown assay: capture of 35S-labelled p300 CH1 by HIF-1α CAD after exposure to FIH. The settings on record: for ability to capture CH1 after pre-incubation with FIH: GST-fused polypeptide, 35S-labelled CH1. As for the experimental part:
N-oxaloylglycine was added to 5 mM when required. Glutathione Sepharose beads were added for 40 minutes at 25° C. and then washed with 50 mM Tris/HCl pH 7.4, 0.5% NP40, 150 mM NaCl and 1 mM DTT. […] Binding was performed for 1 hour at 25° C. and the beads were then washed in the same buffer. The bound proteins were eluted in SDS running buffer and analyzed by SDS-PAGE and autoradiography.

Setting [4] is: in vitro kinetic assays, recombinant FIH, GST HIF-1α 775-826 at 30 μM, read-out: IC50.

T1 sequence (Q9NWT6 with tags, fused parts or gaps): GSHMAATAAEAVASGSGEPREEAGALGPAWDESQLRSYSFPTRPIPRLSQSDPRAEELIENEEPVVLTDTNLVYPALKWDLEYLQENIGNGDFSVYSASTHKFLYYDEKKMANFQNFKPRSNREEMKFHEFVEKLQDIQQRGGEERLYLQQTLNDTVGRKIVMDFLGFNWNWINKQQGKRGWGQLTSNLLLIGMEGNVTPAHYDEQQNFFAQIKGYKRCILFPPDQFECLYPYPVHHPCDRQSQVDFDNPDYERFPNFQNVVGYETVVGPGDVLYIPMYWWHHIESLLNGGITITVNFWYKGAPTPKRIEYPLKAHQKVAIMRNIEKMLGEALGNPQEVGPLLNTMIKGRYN

As usually defined, the Km is the concentration of substrate that gives half-maximal velocity. Regarding “2-oxoglutarate [2-OG, reference compound]”, at FIH [1] (preliminary kinetic parameter, with free HIF-1α 775-826 peptide, 2-OG turnover assay, read-out: Km(2-OG)), the Michaelis-Menten constant (Km) was 10 µM.

The term IC50 denotes the midpoint of a concentration-inhibition curve. In the case of `[Cl-].[Cl-].[Co+2]` [Cobalt (II), cobalt (II) chloride], the IC50 on FIH [2] (setting [4]) was found to be 10 µM.

`O=C(O)CNC(=O)C(=O)O` [N-oxaloylglycine, reference compound]: on FIH [3] (N-oxaloylglycine 5 mM in FIH/HIF-1α CAD reaction step), the “inhibition of FIH effect on CH1 capture by HIF-1α CAD” value is “inhibited the effect of FIH”. This molecule gave an IC50 against FIH [2] of 25 µM.

Consider `O=S(=O)([O-])[O-].O=S(=O)([O-])[O-].[Fe+2].[NH4+].[NH4+]` [iron (II), iron (II) ammonium sulfate], for which the “effect of exogenous metal on FIH activity” value on FIH [2] (added to purified FIH/HIF-1α CAD assay) is reported as “no further increase in activity”.

Consider `[Cl-].[Cl-].[Zn+2]` [zinc (II), zinc (II) chloride], for which, on FIH [2] (setting [4]), the IC50 stood at 10 µM.

Consider “GST HIF-1α 577-826: GST tagged fusion of human HIF-1α residues 577-826”, for which, in the data set with FIH [1], the “% activity relative to 775-826 peptide” value was found to be 67% and the CO2 released is on record as 0.81 nmol.

Turning to “GST HIF-1α 775-826 N803A: GST HIF-1α 775-826 with Asn-803 mutated to alanine (PSDLACRLLGQSMDESGLPQLTSYDCEVAAPIQGSRNLLQGEELLRALDQVN; cysteine pairing not given here; also: GST fusion, not in chain)”, in the data set with FIH [1], the “% activity relative to 775-826 peptide” value is on record as less than 0.01% and the CO2 released is on record as less than 0.001 nmol. Further, in the data set with FIH [3], the “ability to capture CH1 after pre-incubation with FIH” value is on record as “unaffected”.

Turning to “GST HIF-1α 775-826 N803D: GST HIF-1α 775-826 with Asn-803 mutated to aspartate (PSDLACRLLGQSMDESGLPQLTSYDCEVDAPIQGSRNLLQGEELLRALDQVN; cysteine pairing not given here; also: GST fusion, not in chain; UniProt Q16665 775-826, looked up, variant N803D)”, the “2-OG turnover relative to the analogous Asn-803 substrate” value in the data set with FIH [1] (GST HIF-1α 775-826 mutant) is not above 7%. Besides, in the data set with FIH [1], the “% activity relative to 775-826 peptide” value is 7% and the CO2 released came out at 0.22 nmol.

Consider “GST HIF-1α 775-826 N803E: GST HIF-1α 775-826 with Asn-803 mutated to glutamate (PSDLACRLLGQSMDESGLPQLTSYDCEVEAPIQGSRNLLQGEELLRALDQVN; cysteine pairing not given here; also: GST fusion, not in chain; UniProt Q16665 775-826, looked up, variant N803E)”, for which, in the data set with FIH [1], the “% activity relative to 775-826 peptide” value is reported as less than 0.01% and the CO2 released was less than 0.001 nmol.

For the molecule “GST HIF-1α 775-826 N803Q: GST HIF-1α 775-826 with Asn-803 mutated to glutamine (PSDLACRLLGQSMDESGLPQLTSYDCEVQAPIQGSRNLLQGEELLRALDQVN; cysteine pairing not given here; also: GST fusion, not in chain; UniProt Q16665 775-826, looked up, variant N803Q)”, in the data set with FIH [1], the “% activity relative to 775-826 peptide” value is on record as less than 0.01% and the CO2 released is listed as less than 0.001 nmol.

Regarding “GST HIF-1α 775-826: N-terminal glutathione S-transferase tagged fusion of human HIF-1α residues 775-826 (CAD)”, in the data set with FIH [1], the “% activity relative to 775-826 peptide” value amounted to 96% and the CO2 released is listed as 2.7 nmol. Also, the “ability to capture CH1 after pre-incubation with FIH” value in the data set with FIH [3] was “strikingly reduced”.

What is called Vmax is the rate approached at saturating substrate. As to “HIF-1α 775-826: free polypeptide encompassing the human HIF-1α CAD (residues 775-826), GST tag removed”, the maximal velocity (Vmax) with FIH [1] (preliminary kinetic parameter, 2-OG turnover assay) was 0.3 µmol/min/mg. Besides, the Michaelis constant (Km) with FIH [1] (preliminary kinetic parameter, 2-OG turnover assay, read-out: Km(peptide)) was found to be 10 µM. In addition, in the data set with FIH [1], the “% activity relative to 775-826 peptide” value was determined as 100% and the CO2 released is 2.8 nmol.

B1: His6-HIF-1α 530-698: His6-tagged section of HIF-1α, residues 530-698 (protein)
chain: EFKLELVEKLFAEDTEAKNPFSTQDTDLDLEMLAPYIPMDDDFQLRSFDQLSPLESSSASPESASPQSTVTVFQQTQIQEPTANATTTTATTDELKTVTKDRMEDIKILIASPSPTHIHKETTSATSSPYRDTQSRTASPNRAGKGVIEQTEKSHPRSPNVLSVALSQR
modifications: left off: small tags and cut ends
Turning to B1, in the data set with FIH [1], the “% activity relative to 775-826 peptide” value was less than 0.01% and the CO2 released is less than 0.001 nmol.

B2: GST HIF-1α 530-652: GST tagged fusion of human HIF-1α residues 530-652 (protein)
chain: EFKLELVEKLFAEDTEAKNPFSTQDTDLDLEMLAPYIPMDDDFQLRSFDQLSPLESSSASPESASPQSTVTVFQQTQIQEPTANATTTTATTDELKTVTKDRMEDIKILIASPSPTHIHKETT
modifications: left off: a dimerising Fc or GST
For B2, in the data set with FIH [1], the “% activity relative to 775-826 peptide” value is reported as 1.8% and the CO2 released came to 0.05 nmol.

B3: His6-HIF-1α 344-503: His6-tagged section of HIF-1α, residues 344-503 (protein)
chain: GIIQHDLIFSLQQTECVLKPVESSDMKMTQLFTKVESEDTSSLFDKLKKEPDALTLLAPAAGDTIISLDFGSNDTETDDQQLEEVPLYNDVMLPSPNEKLQNINLAMSPLPTAETPKPLRSSADPALNQEVALKLEPNPESLELSFTMPQIQDQTPSPSD
modifications: left off: small tags and cut ends
Take B3: in the data set with FIH [1], the “% activity relative to 775-826 peptide” value is less than 0.01% and the CO2 released is less than 0.001 nmol.
